Reference: paper PMC8390506

Target: double-mutant TPX2 (2M-TPX2) (Xenopus laevis) (UniProt Q6NUF4)
Assay: BLI; Octet (ForteBio); TPX2 attached to sensors, importin concentration varied; normalized amplitudes; apparent Kd

importin-αΔIBB (truncated importin-α without the importin-β-binding domain) (domain or fragment), sequence (P52170 71-522, stated change not applied): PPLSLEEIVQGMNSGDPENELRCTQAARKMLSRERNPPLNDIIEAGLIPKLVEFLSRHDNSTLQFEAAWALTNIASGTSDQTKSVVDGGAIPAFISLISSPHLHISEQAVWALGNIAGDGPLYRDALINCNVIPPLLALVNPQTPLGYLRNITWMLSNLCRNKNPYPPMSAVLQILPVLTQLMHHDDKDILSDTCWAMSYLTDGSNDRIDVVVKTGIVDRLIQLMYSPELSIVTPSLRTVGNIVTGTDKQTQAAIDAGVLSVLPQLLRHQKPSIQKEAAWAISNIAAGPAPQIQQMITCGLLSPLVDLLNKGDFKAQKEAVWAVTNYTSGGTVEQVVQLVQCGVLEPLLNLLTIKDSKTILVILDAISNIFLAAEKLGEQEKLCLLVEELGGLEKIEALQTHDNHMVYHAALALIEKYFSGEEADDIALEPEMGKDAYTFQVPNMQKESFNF

## importin-αΔIBB (truncated importin-α without the importin-β-binding domain) (domain or fragment)
  Kd: 45 nM
